T1: human ALPL on CHO cells (human, UniProt P05186 18-501)
T1 construct: whole, on cells; also called CHO-ALPL
T1 sequence (looked up): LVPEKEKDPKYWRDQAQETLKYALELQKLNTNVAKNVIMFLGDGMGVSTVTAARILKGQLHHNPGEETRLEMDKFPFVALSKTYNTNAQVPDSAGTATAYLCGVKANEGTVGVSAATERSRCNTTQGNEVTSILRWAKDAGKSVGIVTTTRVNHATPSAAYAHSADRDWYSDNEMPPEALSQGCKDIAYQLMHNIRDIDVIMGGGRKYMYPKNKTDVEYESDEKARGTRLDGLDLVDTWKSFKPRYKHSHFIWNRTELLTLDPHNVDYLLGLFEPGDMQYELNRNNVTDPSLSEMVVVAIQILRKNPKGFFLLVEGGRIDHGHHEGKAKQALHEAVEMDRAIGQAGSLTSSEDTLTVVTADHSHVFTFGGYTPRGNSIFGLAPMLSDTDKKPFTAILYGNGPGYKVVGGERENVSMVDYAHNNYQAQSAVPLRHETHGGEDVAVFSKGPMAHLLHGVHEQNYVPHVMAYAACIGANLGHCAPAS

B1: A06-E06 hFc-vcPAB-MMAE [G4S]3 (Fc fusion, DAR 4)
chain 1: QVHLVESGGGLVQAGGSLRLSCAASGRTFLSMGWFRQAPGKEREFVAAISWTGGSTGYADSVKGRFTISRESDKETMYLQMNSLKPEDTAVYYCAARGDVYYGGDDATRYKYWGQGTQVTVSSGGGGSGGGGSGGGGSEPKSSDKTHTCPPCPAPELLGGPCVFLFPPKPKDTLMISRTPEVTCVVVDVSHEDPEVKFNWYVDGVEVHNAKTKPREEQYNSTYRVVSVLTVLHQDWLNGKEYKCKVSNKALPAPIEKTISKAKGQPREPQVYTLPPSRDELTKNQVSLYCLVKGFYPSDIAVEWESNGQPENNYKTTPPVLDSDGSFFLYSKLTVDKSRWQQGNVFSCSVMHEALHNHYTQKSLCLSPGK
chain 2: QVHLVESGGGLVQAGGSLRLSCAASRRSFSEYAMGWFRQAPGKEREFVAAIGWSGVIEYADSVKGRFTISRDNAKDTVYLQMNSLKPEDTAVYYCAAGLGIRVVSQTPAYWGQGTQVTVSSGGGGSGGGGSGGGGSEPKSSDKTHTCPPCPAPELLGGPCVFLFPPKPKDTLMISRTPEVTCVVVDVSHEDPEVKFNWYVDGVEVHNAKTKPREEQYNSTYRVVSVLTVLHQDWLNGKEYKCKVSNKALPAPIEKTISKAKGQPREPQVYTLPPSRDELTKNQVSLTCLVKGFYPSDIAVEWESNGQPENNYKTTPPVLDSDGSFFLTSKLTVDKSRWQQGNVFSCSVMHEALHNHYTQKSLCLSPGK
modifications: MC-vc-PAB-MMAE on Cys 239 and Cys 442 (EU numbering)
notes: Biparatopic drug conjugate, DAR 4; also called #639
B2: A06-E10 hFc-vcPAB-MMAE [G4S]3 (Fc fusion, DAR 4)
chain 1: QVHLVESGGGLVQAGGSLRLSCAASGRTFLSMGWFRQAPGKEREFVAAISWTGGSTGYADSVKGRFTISRESDKETMYLQMNSLKPEDTAVYYCAARGDVYYGGDDATRYKYWGQGTQVTVSSGGGGSGGGGSGGGGSEPKSSDKTHTCPPCPAPELLGGPCVFLFPPKPKDTLMISRTPEVTCVVVDVSHEDPEVKFNWYVDGVEVHNAKTKPREEQYNSTYRVVSVLTVLHQDWLNGKEYKCKVSNKALPAPIEKTISKAKGQPREPQVYTLPPSRDELTKNQVSLYCLVKGFYPSDIAVEWESNGQPENNYKTTPPVLDSDGSFFLYSKLTVDKSRWQQGNVFSCSVMHEALHNHYTQKSLCLSPGK
chain 2: QVQLVESGGGLVQAGGSLRLSCAVSGRALSDYNIGWFRQAPGKEREFVARKTWDGSSTRYDDSVKGRFTVSIEDAKNTAYLQMSSLKTEDTAVYYCAAGRYSRARGWEYDYWGQGTQVTVSSGGGGSGGGGSGGGGSEPKSSDKTHTCPPCPAPELLGGPCVFLFPPKPKDTLMISRTPEVTCVVVDVSHEDPEVKFNWYVDGVEVHNAKTKPREEQYNSTYRVVSVLTVLHQDWLNGKEYKCKVSNKALPAPIEKTISKAKGQPREPQVYTLPPSRDELTKNQVSLTCLVKGFYPSDIAVEWESNGQPENNYKTTPPVLDSDGSFFLTSKLTVDKSRWQQGNVFSCSVMHEALHNHYTQKSLCLSPGK
modifications: MC-vc-PAB-MMAE on Cys 239 and Cys 442 (EU numbering)
notes: Biparatopic drug conjugate, DAR 4
B3: A06-F05 hFc-vcPAB-MMAE [G4S]3 (Fc fusion, DAR 4)
chain 1: QVHLVESGGGLVQAGGSLRLSCAASGRTFLSMGWFRQAPGKEREFVAAISWTGGSTGYADSVKGRFTISRESDKETMYLQMNSLKPEDTAVYYCAARGDVYYGGDDATRYKYWGQGTQVTVSSGGGGSGGGGSGGGGSEPKSSDKTHTCPPCPAPELLGGPCVFLFPPKPKDTLMISRTPEVTCVVVDVSHEDPEVKFNWYVDGVEVHNAKTKPREEQYNSTYRVVSVLTVLHQDWLNGKEYKCKVSNKALPAPIEKTISKAKGQPREPQVYTLPPSRDELTKNQVSLYCLVKGFYPSDIAVEWESNGQPENNYKTTPPVLDSDGSFFLYSKLTVDKSRWQQGNVFSCSVMHEALHNHYTQKSLCLSPGK
chain 2: QVQLVESGGGLVQAGGSLRLSCAASGRAFGDYNIGWFRQAPGKEREFVARRTWDGSSTRYDDSVKGRFTVSIDNAKNTAYLQMNSLKTEDTAVYYCAAGRYSRVRGWEYDYWGQGTQVTVSSGGGGSGGGGSGGGGSEPKSSDKTHTCPPCPAPELLGGPCVFLFPPKPKDTLMISRTPEVTCVVVDVSHEDPEVKFNWYVDGVEVHNAKTKPREEQYNSTYRVVSVLTVLHQDWLNGKEYKCKVSNKALPAPIEKTISKAKGQPREPQVYTLPPSRDELTKNQVSLTCLVKGFYPSDIAVEWESNGQPENNYKTTPPVLDSDGSFFLTSKLTVDKSRWQQGNVFSCSVMHEALHNHYTQKSLCLSPGK
modifications: MC-vc-PAB-MMAE on Cys 239 and Cys 442 (EU numbering)
notes: as for B2
B4: A06-E06-hFc-vcPAB-MMAE [G4S]1 (Fc fusion, DAR 4)
chain 1: QVHLVESGGGLVQAGGSLRLSCAASGRTFLSMGWFRQAPGKEREFVAAISWTGGSTGYADSVKGRFTISRESDKETMYLQMNSLKPEDTAVYYCAARGDVYYGGDDATRYKYWGQGTQVTVSSGGGGSEPKSSDKTHTCPPCPAPELLGGPCVFLFPPKPKDTLMISRTPEVTCVVVDVSHEDPEVKFNWYVDGVEVHNAKTKPREEQYNSTYRVVSVLTVLHQDWLNGKEYKCKVSNKALPAPIEKTISKAKGQPREPQVYTLPPSRDELTKNQVSLYCLVKGFYPSDIAVEWESNGQPENNYKTTPPVLDSDGSFFLYSKLTVDKSRWQQGNVFSCSVMHEALHNHYTQKSLCLSPGK
chain 2: QVHLVESGGGLVQAGGSLRLSCAASRRSFSEYAMGWFRQAPGKEREFVAAIGWSGVIEYADSVKGRFTISRDNAKDTVYLQMNSLKPEDTAVYYCAAGLGIRVVSQTPAYWGQGTQVTVSSGGGGSEPKSSDKTHTCPPCPAPELLGGPCVFLFPPKPKDTLMISRTPEVTCVVVDVSHEDPEVKFNWYVDGVEVHNAKTKPREEQYNSTYRVVSVLTVLHQDWLNGKEYKCKVSNKALPAPIEKTISKAKGQPREPQVYTLPPSRDELTKNQVSLTCLVKGFYPSDIAVEWESNGQPENNYKTTPPVLDSDGSFFLTSKLTVDKSRWQQGNVFSCSVMHEALHNHYTQKSLCLSPGK
modifications: MC-vc-PAB-MMAE on Cys 239 and Cys 442 (EU numbering)
notes: Biparatopic drug conjugate, DAR 4; also called #710
B5: A06-E10-hFc-vcPAB-MMAE [G4S]1 (Fc fusion, DAR 4)
chain 1: QVHLVESGGGLVQAGGSLRLSCAASGRTFLSMGWFRQAPGKEREFVAAISWTGGSTGYADSVKGRFTISRESDKETMYLQMNSLKPEDTAVYYCAARGDVYYGGDDATRYKYWGQGTQVTVSSGGGGSEPKSSDKTHTCPPCPAPELLGGPCVFLFPPKPKDTLMISRTPEVTCVVVDVSHEDPEVKFNWYVDGVEVHNAKTKPREEQYNSTYRVVSVLTVLHQDWLNGKEYKCKVSNKALPAPIEKTISKAKGQPREPQVYTLPPSRDELTKNQVSLYCLVKGFYPSDIAVEWESNGQPENNYKTTPPVLDSDGSFFLYSKLTVDKSRWQQGNVFSCSVMHEALHNHYTQKSLCLSPGK
chain 2: QVQLVESGGGLVQAGGSLRLSCAVSGRALSDYNIGWFRQAPGKEREFVARKTWDGSSTRYDDSVKGRFTVSIEDAKNTAYLQMSSLKTEDTAVYYCAAGRYSRARGWEYDYWGQGTQVTVSSGGGGSEPKSSDKTHTCPPCPAPELLGGPCVFLFPPKPKDTLMISRTPEVTCVVVDVSHEDPEVKFNWYVDGVEVHNAKTKPREEQYNSTYRVVSVLTVLHQDWLNGKEYKCKVSNKALPAPIEKTISKAKGQPREPQVYTLPPSRDELTKNQVSLTCLVKGFYPSDIAVEWESNGQPENNYKTTPPVLDSDGSFFLTSKLTVDKSRWQQGNVFSCSVMHEALHNHYTQKSLCLSPGK
modifications: MC-vc-PAB-MMAE on Cys 239 and Cys 442 (EU numbering)
notes: Biparatopic drug conjugate, DAR 4; also called #711
B6: A06-F05-hFc-vcPAB-MMAE [G4S]1 (Fc fusion, DAR 4)
chain 1: QVHLVESGGGLVQAGGSLRLSCAASGRTFLSMGWFRQAPGKEREFVAAISWTGGSTGYADSVKGRFTISRESDKETMYLQMNSLKPEDTAVYYCAARGDVYYGGDDATRYKYWGQGTQVTVSSGGGGSEPKSSDKTHTCPPCPAPELLGGPCVFLFPPKPKDTLMISRTPEVTCVVVDVSHEDPEVKFNWYVDGVEVHNAKTKPREEQYNSTYRVVSVLTVLHQDWLNGKEYKCKVSNKALPAPIEKTISKAKGQPREPQVYTLPPSRDELTKNQVSLYCLVKGFYPSDIAVEWESNGQPENNYKTTPPVLDSDGSFFLYSKLTVDKSRWQQGNVFSCSVMHEALHNHYTQKSLCLSPGK
chain 2: QVQLVESGGGLVQAGGSLRLSCAASGRAFGDYNIGWFRQAPGKEREFVARRTWDGSSTRYDDSVKGRFTVSIDNAKNTAYLQMNSLKTEDTAVYYCAAGRYSRVRGWEYDYWGQGTQVTVSSGGGGSEPKSSDKTHTCPPCPAPELLGGPCVFLFPPKPKDTLMISRTPEVTCVVVDVSHEDPEVKFNWYVDGVEVHNAKTKPREEQYNSTYRVVSVLTVLHQDWLNGKEYKCKVSNKALPAPIEKTISKAKGQPREPQVYTLPPSRDELTKNQVSLTCLVKGFYPSDIAVEWESNGQPENNYKTTPPVLDSDGSFFLTSKLTVDKSRWQQGNVFSCSVMHEALHNHYTQKSLCLSPGK
modifications: MC-vc-PAB-MMAE on Cys 239 and Cys 442 (EU numbering)
notes: as for B2

Target: T1, human ALPL on CHO cells
Experiment: flow cytometry, CHO cells stably expressing human ALPL; PDC detected with FITC anti-human Ab
Experimental: Biparatopic VHH-hFc drug conjugates were assessed for human ALPP, ALPPL2, ALPI and ALPL cell-surface binding by flow cytometry. Binders were screened on CHO cells stably expressing human ALPP, ALPPL2, ALPI or ALPL.
Cell surface binding of test agents to hALPP isoforms was characterized in four CHO-ALPP isoform transfectant cell lines (CHO-ALPP, CHO-ALPPL2, CHO-ALPI and CHO-ALPL) and the resulting KDapp values determined. Adherent cells were detached from tissue culture flasks by incubating with 0.1% EDTA/PBS solution at 37° C. for […] or until cells detached easily. Cells were re-suspended in ice-cold PBS/2% FCS in 15 ml tubes and centrifuged at 1700 rpm for 5 mins at 4° C. Supernatant was removed and the cell pellet re-suspended in PBS/2% FCS. […] Cells were incubated with 100 μl of test agents at a range of concentrations, plus controls for 1 hr on ice. The sample plate was centrifuged at 1700 rpm for 5 mins at 4° C. The supernatant was removed, and a wash performed by re-suspending the cell pellets in 0.25 mL of ice-cold PBS/2% FCS using a multichannel pipette. Samples were again centrifuged at 1700 rpm for 5 min at 4° C. Supernatant was removed and two further washes performed as described. After the final wash and centrifugation step, excess liquid was removed by blotting the plate on tissue paper. Binding of VHH-hFc agents was determined by adding 100 μl of Fitc-anti-human Ab (ThermoFisher) and incubating for 30 mins on ice in the dark. Wash steps were performed as described previously. All cell pellets were finally re-suspended in 0.28 ml of ice-cold PBS/2% FCS and left on ice in the dark prior to analysis on a Merck-Millipore Guava EasyCyte HT or Thermo Fisher Attune N×T flow cytometer.

Binding result, no binding (tested: 350 nM):
B1, B2, B3, B4, B5, B6
